PMC7966745, “Elucidation of transient protein-protein interactions within carrier protein-dependent biosynthesis” (Communications Biology, 2021)

Biological target: T1, octanoyl-AcpP (C8-AcpP), E. coli acyl carrier protein (E. coli, UniProt P0A6A8 2-78, octanoyl pantethenamide probe loaded (stable C8 acyl analog); uniformly 15N labeled and perdeuterated)
T1 construct: acyl carrier protein AcpP, E. coli; PDB 2FAD is heptanoyl-AcpP, used for docking only; also called 15N-C8-AcpP; source: E. coli BL21 (DE3), M9 minimal media with 15N NH4Cl and D2O, purified; made apo with P. aeruginosa ACPH, then loaded with CoaA, CoaD, CoaE and Sfp
Assay: NMR titration; 1H-15N HSQC of 15N, perdeuterated C8-AcpP titrated with unlabeled partner, at least five points; 37 °C; 10 mM potassium phosphate pH 7.4, 0.5 mM TCEP, 0.1% NaN3; TITAN 2D lineshape analysis, flexible stoichiometry model
Settings: both partners purified

T1 sequence (P0A6A8 2-78): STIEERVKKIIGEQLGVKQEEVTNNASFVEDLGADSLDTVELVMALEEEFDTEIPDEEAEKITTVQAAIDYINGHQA

B1: FabF, E. coli elongating ketosynthase (enzyme)
chain: SKRRVVVTGLGMLSPVGNTVESTWKALLAGQSGISLIDHFDTSAYATKFAGLVKDFNCEDIISRKEQRKMDAFIQYGIVAGVQAMQDSGLEITEENATRIGAAIGSGIGGLGLIEENHTSLMNGGPRKISPFFVPSTIVNMVAGHLTIMYGLRGPSISIATACTSGVHNIGHAARIIAYGDADVMVAGGAEKASTPLGVGGFGAARALSTRNDNPQAASRPWDKERDGFVLGDGAGMLVLEEYEHAKKRGAKIYAELVGFGMSSDAYHMTSPPENGAGAALAMANALRDAGIEASQIGYVNAHGTSTPAGDKAEAQAVKTIFGEAASRVLVSSTKSMTGHLLGAAGAVESIYSILALRDQAVPPTINLDNPDEGCDLDFVPHEARQVSGMEYTLCNSFGFGGTNGSLIFKKI
notes: ketosynthase FabF (3-oxoacyl-ACP synthase 2), E. coli; also called KS; source: E. coli BL21 (DE3), purified (Ni-IMAC, Superdex 75)
stoichiometry N: ~1
